The record followed here is US20100216693A1, “COMPOSITIONS AND METHODS OF TREATING DIABETES” (priority 2005, published 2010).

For test [1], the target named is T1, insulin immobilized on the surface of CM5 chip (Homo sapiens, UniProt P01308).
T1 construct: 28; purchased Novo Nordisk A/S, Denmark Actrapid
As to the kind of experiment: SPR: direct binding of C-peptide and variants to insulin immobilized on CM5 chip. The note with it: pM-μM, pH 3-7. As for the experimental part:
BiacorA Biacore 3000 instrument was employed for the interaction measurements based on surface plasmon resonance (SPR). Interaction analyses were performed at 25° C. in 10 mM Na-citrate buffers pH 3, 4, 5, 10 mM bis-Tris, pH 6, and 10 mM Tris/HC1, pH 7, all buffers containing 100 mM NaCl and 0.005% 5P20. Flow rates for the binding analyses were kept at 20 μl/min. […] Insulin was immobilized on a carboxymethyl-modified dextran surface via both amine and carboxyl coupling, using the surface thiol method, in two different lanes of Biacore CM5 chips. The immobilization was carried out according to the procedure described in the kits. In brief, the sensor chip surface was first washed with 4 M LiCl/HBS for 1 min and then with 0.2% SP20/HBS for 1 mM. The surface was activated according to standard procedure with an injection of 0.05 M NHS/0.2 M EDC for 7 min. Desalted insulin solution was diluted in acetate buffer, pH 4.5, to 20 μg/ml and injected at 50/min for different time intervals. For surface thiol coupling, the surface was first activated with 0.05 M NHS/0.2 M EDC for 2 min followed by a 3 min injection of 40 mM cystamine dihydrochloride and then 0.1 M DTE for 3 min. […] The mixture was incubated for 10 mM at room temperature and excess PDEA was removed on a NAP-10 column. The purified PDEA ligand was injected for 7 min, soon after DTE, and finally the surface was washed with 20 mM PDEA in 0.1 M sodium acetate, 1.0 M NaCl. For quick regeneration of the surface, 2 M guanidine-HC1, pH 6.4, was employed. For controls, lanes activated and deactivated according to the standard procedures were used. For subtraction of noise from the data, running buffer only was injected to all surfaces. […] Similar results where obtained when insulin was injected on C-peptide immobilized on the surface of a streptavidin (SA) chip. Both peptides were injected in concentration ranging from pM-μM at different pH from 3-7. […] This conclusion is compatible with the fact that C-peptide and insulin are joined in proinsulin by covalent bonds rather than binding attachments, and with little ordered structure in the C-peptide part. […] This appears relevant since C-peptide is very negative (−6 charges) with much repulsive forces.
On the technique in general: Surface plasmon resonance follows binding to a sensor surface in real time, without labels.

For test [2], the target named is T2, insulin-insulin interaction (Homo sapiens, UniProt P01308).
T2 construct: 28; purchased Novo Nordisk A/S, Denmark Actrapid
The experiment in a line: SPR: effect of substances mixed with insulin in solution on insulin-insulin interaction. The class given is binding. Conditions: for effect on insulin-insulin interaction when injected along with insulin: 1:5 molar ratio. The procedure: BiacorA Biacore 3000 instrument was employed for the interaction measurements based on surface plasmon resonance (SPR). Interaction analyses were performed at 25° C. in 10 mM Na-citrate buffers pH 3, 4, 5, 10 mM bis-Tris, pH 6, and 10 mM Tris/HC1, pH 7, all buffers containing 100 mM NaCl and 0.005% 5P20. Flow rates for the binding analyses were kept at 20 μl/min. […] Insulin was immobilized on a carboxymethyl-modified dextran surface via both amine and carboxyl coupling, using the surface thiol method, in two different lanes of Biacore CM5 chips. The immobilization was carried out according to the procedure described in the kits. In brief, the sensor chip surface was first washed with 4 M LiCl/HBS for 1 min and then with 0.2% SP20/HBS for 1 mM. The surface was activated according to standard procedure with an injection of 0.05 M NHS/0.2 M EDC for 7 min. Desalted insulin solution was diluted in acetate buffer, pH 4.5, to 20 μg/ml and injected at 50/min for different time intervals. For surface thiol coupling, the surface was first activated with 0.05 M NHS/0.2 M EDC for 2 min followed by a 3 min injection of 40 mM cystamine dihydrochloride and then 0.1 M DTE for 3 min. […] The mixture was incubated for 10 mM at room temperature and excess PDEA was removed on a NAP-10 column. The purified PDEA ligand was injected for 7 min, soon after DTE, and finally the surface was washed with 20 mM PDEA in 0.1 M sodium acetate, 1.0 M NaCl. For quick regeneration of the surface, 2 M guanidine-HC1, pH 6.4, was employed. For controls, lanes activated and deactivated according to the standard procedures were used. For subtraction of noise from the data, running buffer only was injected to all surfaces. For the C-terminal attachment, surface-thiol coupling to 4000-5000 RU was used, and for N-terminal attachment, amine coupling to 800-1000 RU as achieved on different CM5 chips. However for kinetic analysis immobilization was carried out in a controlled condition and around 1000 RU for C-terminal and 400 RU for N-terminal coupling were immobilized. A surface activated with EDC/NHS and deactivated with ethanolamine was used as a control surface for N-terminally immobilized insulin and a surface treated with EDC/NHS, cysteine/DTE and finally deactivated with PDEA-NaCl was used as a control for C-terminally immobilized insulin. Biacore data were analyzed with Bia-evaluation software 4.1. All calculations based on numerical approaches, including simulations and global curve fitting for estimates of active concentrations, were performed with IGOR Pro (version 4.01.A, WaveMetrics, Inc.). However, C-peptide, mixed with insulin in solution, influences the insulin-insulin monomer interactions measured above. […] This elevated interaction can be seen at different pH from 3-7. The phenomenon of more pronounced interaction was clearer when concentrations higher than 0.5 μM were used then below 0.5 μM. […] All concentrations were run in triplicates and in random order.

The target of the next test is T3, immobilized insulin (Homo sapiens, UniProt P01308).
T3 construct: 28; purchased Novo Nordisk A/S, Denmark Actrapid
As to the kind of experiment: SPR (Biacore 3000) insulin-insulin interaction, free insulin over chip-immobilized insulin. The class given is binding. Conditions: for Kd: C-terminally immobilized insulin, global fit, analyte with two binding sites competing for one site, insulin 0.25-10 μM. The procedure: BiacorA Biacore 3000 instrument was employed for the interaction measurements based on surface plasmon resonance (SPR). Interaction analyses were performed at 25° C. in 10 mM Na-citrate buffers pH 3, 4, 5, 10 mM bis-Tris, pH 6, and 10 mM Tris/HC1, pH 7, all buffers containing 100 mM NaCl and 0.005% 5P20. Flow rates for the binding analyses were kept at 20 μl/min. Insulin was desalted and buffer was exchanged on NAP 10 columns from Amersham Biosciences.
Working insulin solution was prepared after removing the excess of zinc sulfate, meta-cresol and other salts from the original solution by passing through a NAP 10 column in the desired buffer for experiments. The desalted insulin was diluted to 1 mM, aliquoted and stored at −20° C.
Insulin was immobilized on a carboxymethyl-modified dextran surface via both amine and carboxyl coupling, using the surface thiol method, in two different lanes of Biacore CM5 chips. The immobilization was carried out according to the procedure described in the kits. In brief, the sensor chip surface was first washed with 4 M LiCl/HBS for 1 min and then with 0.2% SP20/HBS for 1 mM. The surface was activated according to standard procedure with an injection of 0.05 M NHS/0.2 M EDC for 7 min. Desalted insulin solution was diluted in acetate buffer, pH 4.5, to 20 μg/ml and injected at 50/min for different time intervals. For surface thiol coupling, the surface was first activated with 0.05 M NHS/0.2 M EDC for 2 min followed by a 3 min injection of 40 mM cystamine dihydrochloride and then 0.1 M DTE for 3 min. At the same time, 2-(2-pyridinyldithio)ethaneamine hydrochloride (PDEA) insulin was prepared by dissolving 0.5 mg insulin in 0.5 ml 0.1 M MES, adding to it 0.25 ml of (15 mg/ml) PDEA in 0.1 M MES, pH 5, and 25 μl 0.4M EDC. The mixture was incubated for 10 mM at room temperature and excess PDEA was removed on a NAP-10 column. The purified PDEA ligand was injected for 7 min, soon after DTE, and finally the surface was washed with 20 mM PDEA in 0.1 M sodium acetate, 1.0 M NaCl. For quick regeneration of the surface, 2 M guanidine-HC1, pH 6.4, was employed. For controls, lanes activated and deactivated according to the standard procedures were used. For subtraction of noise from the data, running buffer only was injected to all surfaces.
For the C-terminal attachment, surface-thiol coupling to 4000-5000 RU was used, and for N-terminal attachment, amine coupling to 800-1000 RU as achieved on different CM5 chips. However for kinetic analysis immobilization was carried out in a controlled condition and around 1000 RU for C-terminal and 400 RU for N-terminal coupling were immobilized. […]
Biacore data were analyzed with Bia-evaluation software 4.1. […]

A further test has as its target T4, insulin (Homo sapiens, UniProt P01308).
T4 construct: 28; purchased Novo Nordisk A/S, Denmark Actrapid
As to the kind of experiment: Non-denaturing nano-electrospray mass spectrometry of insulin, C-peptide and control peptides. It is filed as binding. As for the experimental part:
For mass spectrometric analysis, preparation of concentrated insulin stock solution was performed essentially as described [Nettleton et al, 2000, Biophys J. 79:1053]. Briefly, insulin (NovoNordisk A/S, Denmark) was concentrated to 100 μM using ultrafiltration spin-filters (NanoSep, PallGellman, MWCO: 3000 Da). This stock solution was then buffer-exchanged to water, pH 5 (HCl), by extended dialysis. For all experiments, insulin and C-peptide stock solutions were diluted in water-HC1 (pH 5) to reach the indicated concentrations. C-peptide was prepared as a 746 μM stock solution in water and all control peptides were prepared similarly.
Mass spectrometry data were recorded with a QTOF Ultima API instrument (Waters, Milford, Mass.) operated in the positive ion mode. Sample solutions were analyzed by nanoelectrospray from conductive borosilicate glass capillaries (Proxeon Biosystems A/S, Odense, Denmark). Instrument settings were not modified for the observation of non-covalent complexes, other than that the “cone” and the “RF-lens” settings were set to 90 and 50 V, respectively.
The binding between insulin and C-peptide in the gas-phase was studied by non-denaturing electrospray mass spectrometry using a method analogous to that of Nettleton et al [Nettleton et al, 2000, Biophys J. 79:1053].

A further test has as its target T5, chip-bound C-peptide (Homo sapiens, UniProt P01308).
T5 sequence (P01308 57-87 limits assumed): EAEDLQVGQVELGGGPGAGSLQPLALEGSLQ
The experiment in a line: SPR: binding of C-peptide in solution to chip-bound C-peptide. As for the experimental part:
Similar results where obtained when insulin was injected on C-peptide immobilized on the surface of a streptavidin (SA) chip. Both peptides were injected in concentration ranging from pM-μM at different pH from 3-7. […] This conclusion is compatible with the fact that C-peptide and insulin are joined in proinsulin by covalent bonds rather than binding attachments, and with little ordered structure in the C-peptide part. […] This appears relevant since C-peptide is very negative (−6 charges) with much repulsive forces.

“Also recorded” adds a separate entry of the source. Where two headings read alike, the source gives them in different places.

T1 sequence (P01308 25-54 limits assumed): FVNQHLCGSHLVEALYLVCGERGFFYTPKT
T1 sequence (P01308 90-110 limits assumed): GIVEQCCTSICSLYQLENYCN
T4 sequence (P01308 25-54 limits assumed): as the sequence (P01308 25-54 limits assumed) above
T2 sequence (P01308 25-54 limits assumed): as above
T3 sequence (P01308 25-54 limits assumed): as above

Take “Glu11-Ala: C-peptide analogue in which Glu 11 has been substituted with Ala (EAEDLQVGQVALGGGPGAGSLQPLALEGSLQ)”: the “interaction with immobilized insulin (peptide alone in solution)” value (“interaction with immobilized insulin” for short) in test [1] is recorded as “showed no interaction with insulin”. In test [2], the “effect on insulin-insulin interaction when injected along with insulin” value is recorded as “failed to show any significant increase”.
“Glu27-Ala: C-peptide analogue in which Glu 27 has been substituted with Ala (EAEDLQVGQVELGGGPGAGSLQPLALAGSLQ)”: the “interaction with immobilized insulin” value in test [1] is reported as “showed no interaction with insulin”. Also, the “effect on insulin-insulin interaction when injected along with insulin” value in test [2] was “failed to show any significant increase”. Besides, the “stimulation of SPR-measurable binding in mixture with insulin in the flow-through solution” value in test [2] (Example 10) is on record as “did also not stimulate the SPR signal”.
Take Human insulin: the figures for the Kd with immobilized insulin (read-out: dissociation constant KD1 (slow off rate)) and in the test with immobilized insulin (read-out: dissociation constant KD2 (rapid off rate)) were 2.71 µM and 4.65 µM, respectively. Moreover, the “lowest insulin solution concentration at which binding is noticeable” value in the test with immobilized insulin (pH 5) is 0.05 µM. For the same substance, the “pH of highest (maximum) insulin-insulin binding interaction” value in the test with immobilized insulin (pH range 3-7) stood at 5. The “insulin concentration at which dimerization is detectable” value with insulin (ESI-MS) worked out at 3 µM. Besides, the “insulin concentration at which higher polymers up to hexamers are detectable” value with insulin (ESI-MS) was determined as 30 µM.
On to “Proinsulin C-peptide (EAEDLQVGQVELGGGPGAGSLQPLALEGSLQ)”, for which the “interaction with immobilized insulin” value in test [1] is “not to give any observable binding”; in test [1] (listed as Proinsulin C-peptide), “showed no interaction with insulin”. Also, in test [2] (insulin:peptide 1:1 and 1:5, pH 3-7), the “effect on insulin-insulin interaction (SPR binding signal) when mixed with insulin” value is “higher interaction with immobilized insulin; also recorded: increases the observable SPR binding signal”. The “effect of C-peptide on insulin-insulin interaction at pH 4 or 7” value in test [2] (pH 4 or 7, 10 μM insulin, 50 μM C-peptide) is given as “little effect”. The “effect of C-peptide on insulin-insulin interaction at pH 5-6” value in test [2] (pH 5-6, 10 μM insulin, 50 μM C-peptide) is recorded as “Enhanced insulin interaction”. The “self-aggregation of the peptide in the gas-phase” value with insulin is reported as “showed an aggregation tendency”. Further, the “interaction with insulin in nanoESI-MS at 0.3 μM” value with insulin (0.3 μM level, 1:1 ratio) is reported as “not possible to detect”. The “interaction (heterodimer) with insulin in nanoESI-MS” value in the test with insulin (3 μM, 1:1 ratio, pH 5) is reported as “clearly shows the interaction”. Besides, the “hexameric insulin charge states in the presence of the peptide” value with insulin (30 μM insulin, 30 μM peptide, pH 5) is “no hexameric insulin was detectable; also recorded: absence of insulin hexamers”. In addition, in the test with insulin (gas-phase), the “concentration at which a dimer of the peptide was detected” value amounted to 3 µM. For the same substance, the “binding of C-peptide in solution to chip-bound C-peptide” value with chip-bound C-peptide is recorded as “no evidence for such binding”.
